One variant from IntAct's records for PubMed 9653157 can be followed below.

The chains are these.
B1: Cell division control protein 18 (Schizosaccharomyces pombe (strain ATCC 38366 / 972)), P41411 (parent)
chain: MCETPIGCHTPRRCNRFIDSAALIDCTNKTNQREHSPSFSIEIPTTPSRKRTLASSHFQTPTKRIKYELGELQEEKTDLYPNFPAQLKENKKPKLPTTPQTPKTPKRTIQIVTPKSLNRTCNPVPFATRLLQSTPHRQLFPPTPSTPSTPSYNSTAKLSLRKSYRSAGVVGRENEKSIVESFFRQHLDANAGGALYVSGAPGTGKTVLLHNVLDHVVSDYPKVNVCYINCMTINEPKAIFEKIHSKIVKEEILENEDHHINFQCELESHFTQSANELYNPVIIVLDEMDHLIAREQQVLYTLFEWPSRPTSRLILVGIANALDMTDRFLPRLRTKHITPKLLSFTPYTAQEISTIIKARLKTAATTSEKNNPFTPIKSISEVSDDSINVVSQHADETPFIHPAAIELCARKVAASSGDLRKALDICRHAIELAEREWKAQHDNTLSSVDIPRASIAHVVRATSAMSQSASARLKNLGLQQKAILCTLVVCEKTSLSVADVFEKYSSLCLRDRLIYPLTSSEFCDVANSLETLAIIRLRTKQRNGKPQDRIISLLVPEMDVITAVGDIGTLKRFFDRR
partner: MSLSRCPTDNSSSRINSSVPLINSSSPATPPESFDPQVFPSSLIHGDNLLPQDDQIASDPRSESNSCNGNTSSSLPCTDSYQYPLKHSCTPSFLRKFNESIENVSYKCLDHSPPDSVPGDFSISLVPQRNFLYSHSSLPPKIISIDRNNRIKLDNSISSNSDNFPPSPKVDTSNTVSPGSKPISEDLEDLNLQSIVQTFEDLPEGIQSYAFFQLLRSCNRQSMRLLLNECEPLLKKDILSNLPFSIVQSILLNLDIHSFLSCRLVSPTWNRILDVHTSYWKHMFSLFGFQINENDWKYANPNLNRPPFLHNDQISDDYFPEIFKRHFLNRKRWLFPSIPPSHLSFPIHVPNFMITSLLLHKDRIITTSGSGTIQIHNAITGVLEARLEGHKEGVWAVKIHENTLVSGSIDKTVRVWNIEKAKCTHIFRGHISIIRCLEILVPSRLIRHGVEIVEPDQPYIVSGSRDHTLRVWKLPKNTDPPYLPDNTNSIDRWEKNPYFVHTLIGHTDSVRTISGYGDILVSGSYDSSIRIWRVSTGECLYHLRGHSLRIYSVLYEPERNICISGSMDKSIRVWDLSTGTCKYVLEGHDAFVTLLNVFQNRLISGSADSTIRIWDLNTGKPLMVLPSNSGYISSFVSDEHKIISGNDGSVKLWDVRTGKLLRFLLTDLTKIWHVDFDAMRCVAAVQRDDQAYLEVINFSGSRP

Variants of B1 are the subject of this experiment. The following applies: with pop2_schpo pop2, O14170.
Take MCEAPIGCHAPRRCNRFIDSAALIDCTNKTNQREHSPSFSIEIPTAPSRKRTLASSHFQAPTKRIKYELGELQEEKTDLYPNFPAQLKENKKPKLPTTPQAPKAPKRTIQIVTPKSLNRTCNPVPFATRLLQSTPHRQLFPPTPSTPSTPSYNSTAKLSLRKSYRSAGVVGRENEKSIVESFFRQHLDANAGGALYVSGAPGTGKTVLLHNVLDHVVSDYPKVNVCYINCMTINEPKAIFEKIHSKIVKEEILENEDHHINFQCELESHFTQSANELYNPVIIVLDEMDHLIAREQQVLYTLFEWPSRPTSRLILVGIANALDMTDRFLPRLRTKHITPKLLSFTPYTAQEISTIIKARLKTAATTSEKNNPFTPIKSISEVSDDSINVVSQHADETPFIHPAAIELCARKVAASSGDLRKALDICRHAIELAEREWKAQHDNTLSSVDIPRASIAHVVRATSAMSQSASARLKNLGLQQKAILCTLVVCEKTSLSVADVFEKYSSLCLRDRLIYPLTSSEFCDVANSLETLAIIRLRTKQRNGKPQDRIISLLVPEMDVITAVGDIGTLKRFFDRR [T4A;T10A;T46A;T60A;T101A;T104A]: the “effect of a mutation on the interaction” value is “disrupting interaction”.
